Measurements taken from the nanobody polyreactivity screen of Harvey et al. (2022).

Assay: yeast display, Sf9 membrane polyspecificity reagent, FACS + sequencing; frameworks hold sequencing errors
Procedure, shortened: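 Synthetic nanobody libraries on Saccharomyces cerevisiae BJ5465 were galactose-induced for 36–48 hours, stained 1 hour at 4 °C with 10% biotinylated, detergent-solubilized Sf9 membrane reagent and enriched on streptavidin microbeads. FACS then separated cells into low and high (top ~1%) gates by anti-HA (expression) and streptavidin (reagent binding) fluorescence. Genes were colony-PCR amplified, MiSeq 2 × 250 sequenced and CDR-length filtered. A clone's polyreactivity label is that of its gate of origin.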

Sequence | polyreactivity (PSR sort gate)
QVQLQESGGLVQAGGLRLSCAASGSVSYQEAMGWYRQAPGKERELVATISFGANTNYADSVKGRFTISRDNAKNTVYLHMNSRKPEDTAVYYCAAESLFDDYYGYWGQGTQVTVSS | low polyreactivity
QVQLLESCVGLVHAGGSLRLSCAASGFIFGTNAMGWSRQAPGKEREWVAAINGRGGGTYYADSVKGRFTISRDNAKNTVYLQMNSLKQEDTAVYYCAASRFDYWGQGTQVTVSS | low polyreactivity
QVQLVESGGGLVQAGGSLRLSCAASGFTFFTYAMGWYRQAPGKERELVAAIRWRGSTTYYADSVKGRFTISRDNAKYTVYLQMNSLKPEDTAVYYCAAELRFRQTGLAYWGDYWGQGTQVTVSS | high polyreactivity
QVQLVESGGGIVQAGGSLRLSCAASGGTFRVNAMVWYRQAPGKEREFVAAISGSGSSTYYADSVKGRFTISRDNAKNTVYLQMNSLKPEDTAVYYCAARSGVGGDNDYWGQGTQVTVSS | low polyreactivity
QVQLVESGARIVQAGGSLRLSCAAYGSTFGRYGMGWYRQAPGKERELVAAISRAGGTNYADSVKGRITISRDNAKNTVYLQMNSLKPEDTAVYYCNARWYYVLYDYWGQGTQVTVSS | low polyreactivity
QVQLVESGGRLVQAGGSLRLSCAASGSTFTRYVMGWYRQAPGKERELVAVISSSGGSTYYADSVKGRFTISRDNAKNTVYLQMNSLKPEDTAVYYCAARYSAKHYGYGYWGQGTQVTVSS | high polyreactivity
QVQLVESGGGLVQAGGSLRLSCAASGFTFRVDAMGWYRQAPGKERELVAAISVRGDSTYYADSVKGRFTISRDNAKNTVYVQMNSLKPEDTAVYYSAAAVRTISRFTFYYWGQGTQVTVSS | high polyreactivity
QVQLVESGGGLVQAGGSLRLSCAASGFIFSYYAMGWYRQAPGKERELVADITSGGSTNYADSVKGRFTISRDNAKNTVYLQMNSLKPEDTAVYYCAATGLPGYYAYDYWGQGTQVTVTS | low polyreactivity
QVQLVESGGGLVQAGGSLRLSCAASGGTFRGYAMGWYRQATGKERELVAAITYSGGRTYYADSVKGRFTISRDNAKNTVYLQMNSLKPEDTAVYYCNAQSSGRLSYRYDYWGQGTQVTVSS | high polyreactivity
QVQLVESGGGLVQAGGSLRLSCAASGRIFLGNAMGWYRQAPGKERELVAAIDASGGSTYYADSVKGRFTISRDNAKNTVYLQMNSLKPEDTAVYYCNAEPRYYSGGHGYDYWGQGTQVTVSS | low polyreactivity
QVQLVESGGGLVQAGGSLRLSCAASGRIFYFYAMGWYRQAPGKERELVAAISTSGGSTYYADSVKGRFTISRDNAKITVYLQMNSLKPEDTAVYYCAARFRYYGSEYDYWGQGTQVTVSS | low polyreactivity
QVQLVESGGGLVQAGGSLRLSCAASGRTFYRYAMGWYRQAPGKERELVAAITASGGSTYYADSVKGRFTISRDNAKNTVYLQMNSLKPEDTAVYYCAKGGKSRYSTWHGDYWGQGTQVTVSS | high polyreactivity
QVQLVESGGGLVQAGGSLRLSCAASGLTFDAYAMGWYRQAPGKERELVAAISSGGNSYYADSVKGRFTISRDNAKNTVYLQMNSLKPEDTAVYYCNAVGYYKYFFLAYEYDYWGQGTQVTVSS | low polyreactivity
QVQLVESGGGLVQAGGSLRLSCAASGSTFVVNTMGWYRQAPGKERELVAAITRRTTSTYYADSVKGRFTISRDNAKNTVYLQMNSLKPEDTAVYYCAAERRHYSTTYYYWGQGTQVTVSS | high polyreactivity
QVQLVESGGGLVQAGGSLRLSCAASGFTSNYYAMGWYRQAPGKERELVAAITTGGSTHYADSVKGRFTISRDNAKNTVYLQMNSLKPEDTAVYYCAAGTNRQQQRYFHHGGYYQYNYWGQGTQVTVSS | low polyreactivity
QVQLVESGGGLVQAGGSLRLSCAASGFTFYGNALGWYRQAPGKARELVAAISRSGGSTYYADSVKGRFTISRDNAKNTVYLQMNSLKPDDTAVYYCAVYVRKWYAVTDQYSGSDYWGQGTQVTVSS | high polyreactivity

Sequence | polyreactivity (PSR sort gate)
QVQLVESGGGLVQAGVSLRLSCSASGGTFPQYAMAWYRHAPGKEREFVADITSRGGTTYYADSVKGRFTISRDNAKNTVFLQMNRLKPEDTAVYFCAADNPADWWGLDYWGQGTQVTVSS | low polyreactivity
QVQLVESGGGLVQAGGSLRLSCAASGFTFPTYAMGWYRQAPGKERELVAAISTSGARTYYADSVKGRFTISRDNAKNTVYLQMNSLKPEDTAVYYCAAVFKAGSAYDYWGQGTQVTVSS | high polyreactivity
QVQLVESGGGLVQAGGSLRLSSAASGSIFDPYAMGWYRQAPGKERELVAGISFSGGRTYYADSVKGRFTISRDNAKNTVYLQMNSLKPEDTAVYYCNKLLTQGAYPYYYWGQGTQVTVSS | high polyreactivity
QVQLVESGGGLVQAGGSLRLSCAASGRIFLRTAMGWYRLAPAKERELVASIDSSGGSAYYADSVQGRFTISRDNAKNTVYLQMNSLKPEDTAVFYCNADAYGTPEFTSYAVRYDYGGQGTQVTVSS | low polyreactivity
QVQLVESGGGLVQAGGSLRLSCAASGFTFNLYDMGWYRQAPGKERELVAAINWSGGTYYADSVKGRFTISRDNAKNTVYLQMNSLKPEDPAVYYCAADFPYTPWSYHHHVWSPDFDYWGQGTQVTVSS | low polyreactivity
QVQLVESGGGLVQAGGSLRLSCAASGRIFTGNAMGWYRQAPGKERELVAAITGRGGNTYYADSGKGRFTISRDNAKNTVYLLMNSLKPEDTAGYYGAKVFFHTPIVPEYDYWGQGTHVTVSS | low polyreactivity
QVQLVESGGGLVQAGGSLRLSCADSGFTFTYYTMGWYRQAPGKERELVAAISGSGGSTYYADSVKGRFTISRDNAKYTVYLQMNSQKPEDSAVYYCAARSRWQSYRLKNHGTYKHDYWGQGTQVTVSS | high polyreactivity
QVQLVESGGGLVQAGGSLRLSCAASGSIFSDNAMGWYRQAPGKERELVASITNSGSTNYADSVKGRFTISRDNAKNTVYLQMNSLKPEDTAVYYCAFSFLYTYDYWGQGTQVTVSS | low polyreactivity
QVQLVESGGGLVQAGGSLRLSCAASGFTFPYYAMGWYSQAPGKERELVAAINRSGGITYYADSVRGRFTISRDNAKNTVYLQMKSLKPEDTAVYYCAAPSFGYRTWSVFGSGHDYWGQGTQVTVSS | high polyreactivity
QVQLVESGGALVQAGGSLRLSCAASGRTFAVNAMGWYRQAPGKEREFVAAISKRGGSTYYADSVKGRFTISRDNAKNTVYLQMNSLTPEDTAVYYCAADYTKHYWGQGTQVTVSS | high polyreactivity
QVQLVESGGGLVQAGGSLRLSCAASGNIFDIYAMGWYRQAPGKERELVAAITSGVRTYYADSVKGLFTISRDNAKNTVYLQMNSVKPEDTAVYYCATPSPHVGLKWEYDYWGQGTQVTVSS | low polyreactivity
QVQLVESGGGLVQAGGSLRLSCAASGRTFSRYVMGWYRQAPGKERELVAAISRTGGRTYYADSVKGRFTISRDNAKNTVYLQMNSLKPEDTAVYYCNAGTVLISTYDYWGQGTQVTVSS | high polyreactivity
QVQLVESGGGLVQAGGSLRLSCAASGSIFVNYAMGWYRQAPGKERELVAAITDGGRTYYADSVKGRFTISRDNAKNTVYLQMNSLKPEDTAVYYCAVDGIRYWGSRDESGYDYWGQGTQVTVSS | low polyreactivity
QVQLVESGGGLVQAGGSLRLSCAASGFTFGGYTMGWYRQAPGKERELVAAISRSGGSTYYADSVKGRFTISRDNAKNTVYLLMNSLKPEDTAVYYCAVTYSVRTYWYDYWGQGTQVTVSS | high polyreactivity
QVQHVESGGGLVQAGGSLRLTCAASGRIYASNSKGWYRQETGKERELFATSRVGGGSTYYADSVKGRFTISRDNAKNTVYLQRNSLKQEDTAVYYWAASFRDDFPQRLDFWGQGTQVTVSS | low polyreactivity
